Results reported in paper PMC8948245, “Mechanistic insights into the regulation of plant phosphate homeostasis by the rice SPX2 – PHR2 complex” (Nature Communications, 2022).
One block for each binder: values may come before it.

How the values were obtained:
[1] = molecular target: the molecule itself; assay: cross-linking; mixture of PHR2^225–362-His complexes with SPX2-flag homodimer and SPX2/SPX2-flag heterodimer from the tandem pull-down; about 30 μM with 200 μM M2M, room temperature, 30 min; SDS-PAGE with or without 100 mM DTT
[2] = molecular target: the molecule itself; assay: cross-linking; about 30 μM purified SPX2/PHR2^225–362 complex with 200 μM M2M, room temperature, 30 min, 25 mM Tris–HCl pH 8.0, 150 mM NaCl, 1 mM InsP6; SDS-PAGE with or without 100 mM DTT
[3] = molecular target: T1, His-tagged PHR2^225–362 (rice PHR2, MYB domain and CC domain) (rice (Oryza sativa), UniProt Q6Z156 225-362); assay: AUC; sedimentation velocity of the purified SPX2/PHR2 complex, 25 mM Tris-HCl pH 8.0, 150 mM NaCl, 1 mM InsP6, 18 °C, 0.7 mg ml^-1; settings: both partners purified
T1 construct: pET21b, C-terminal 8×His tag; codon-optimised synthetic cDNA; also called PHR2-His; source: E. coli BL21(DE3), co-expressed with SPX2; not shown: 8×His, C-terminal, kept
T1 sequence (Q6Z156 225-362): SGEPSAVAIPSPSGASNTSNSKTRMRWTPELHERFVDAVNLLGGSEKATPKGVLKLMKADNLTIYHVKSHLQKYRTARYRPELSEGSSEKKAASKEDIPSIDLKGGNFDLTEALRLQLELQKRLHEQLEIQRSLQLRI

[4] = molecular target: the molecule itself; assay: crystal structure; mH2A1.1^181–366-tagged SPX2^1-202/∆47-59 / InsP6 / PHR2^225–362 ternary complex, 10 mM InsP6 supplied, hanging drop, 18 °C, 3.1 Å
[5] = molecular target: PHR2 MYB domain (crystal) (Oryza sativa, UniProt B8B5N8 180-313); assay: X-ray crystallography, 2.7 A; EMSA: 10 nM FAM-DNA, 0.3375-0.8 uM PHR2, 25 mM Tris-HCl pH 8.0, 150 mM NaCl, 5 mM DTT, 10% glycerol, 200 ng/ml heparin, 4 C, 30 min; crystal: 13% PEG 3350, 0.1; settings: protein: recombinant; tags: C-terminal 8xHis (general PHR2 cloning); chain copies: 2; 5' overhang 1 nt on each strand, 15 bp
Chain of PHR2 MYB domain (crystal) (B8B5N8 180-313): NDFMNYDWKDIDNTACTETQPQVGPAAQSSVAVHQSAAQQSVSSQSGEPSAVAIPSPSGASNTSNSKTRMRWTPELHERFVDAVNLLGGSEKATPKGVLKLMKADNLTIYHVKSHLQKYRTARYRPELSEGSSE

B1: SPX2^K106C-flag (natural protein, rice (Oryza sativa), UniProt Q6Z784 1-280, looked up)
chain: MKFGKSLSSQIVEMQPEWRDNFLSYKDLKKRLNLISGGAAGERASKRRRVGGATAVTVTAAAAGGMTLEQAGFVGLLDAELDKFNFFFLEKEEEYVIKQKELRERCMASAEEVMRVRKEIVDLHGEMVLLENYSALNYTGLVKILKKYDKRTGSMIRLPFVQKVLQQPFFTTDLLYKLVKECEEMLDQLMPTNEHSVASEDGKDDSEGEEKGSKPSSSSSANGGAVPGEAEAEDERSTDMKSTVTAALRALREIRSGSSTVSVFSLPPLHGSNGQDEPGR
notes: rice (Oryza sativa) SPX2, residues 1-280, K106C; source: Ni-NTA pull-down and flag pull-down in tandem; not shown: 3×flag, N-terminal, kept
binding result [1]: binds

B2: SPX2^1-280_K106C (natural protein, rice (Oryza sativa), UniProt Q6Z784 1-280, looked up)
chain: MKFGKSLSSQIVEMQPEWRDNFLSYKDLKKRLNLISGGAAGERASKRRRVGGATAVTVTAAAAGGMTLEQAGFVGLLDAELDKFNFFFLEKEEEYVIKQKELRERCMASAEEVMRVRKEIVDLHGEMVLLENYSALNYTGLVKILKKYDKRTGSMIRLPFVQKVLQQPFFTTDLLYKLVKECEEMLDQLMPTNEHSVASEDGKDDSEGEEKGSKPSSSSSANGGAVPGEAEAEDERSTDMKSTVTAALRALREIRSGSSTVSVFSLPPLHGSNGQDEPGR
notes: rice (Oryza sativa) SPX2, residues 1-280, K106C; also called SPX2^K106C
binding result [2]: binds

stoichiometry N [3]: 1 SPX2:PHR2 ratio (2:2)
B3: mH2A1.1^181–366-tagged SPX2^1-202/∆47-59 (domain or fragment, rice (Oryza sativa), UniProt Q6Z784 1-202, looked up)
chain: MKFGKSLSSQIVEMQPEWRDNFLSYKDLKKRLNLISGGAAGERASKAAAAGGMTLEQAGFVGLLDAELDKFNFFFLEKEEEYVIKQKELRERKMASAEEVMRVRKEIVDLHGEMVLLENYSALNYTGLVKILKKYDKRTGSMIRLPFVQKVLQQPFFTTDLLYKLVKECEEMLDQLMPTNEHSVASEDG
notes: rice (Oryza sativa) SPX2, residues 1-202 with residues 47-59 (R47-T59) deleted; also called crystallized construct
stoichiometry N [4]: 2

B4: P1BS crystal DNA (dsDNA)
DNA 1: GCTTGAGGATATCCGA
DNA 2: CTCGGATATCCTCAAG
binding result [5]: binds
